Our source for the Kd and koff values is article PMC4802085 (2016).

For experiment [1], the target named is T1, recombinant PGRMC1 of the surface plasmon resonance analyses (human, UniProt O00264 44-195). Nature of the experiment: SPR; haem-bound PGRMC1. On the technique in general: In SPR one partner is held on a chip, and binding of the other changes the refractive index at the surface.
Experiment [2] has as its target T1, recombinant PGRMC1 of the surface …. Nature of the experiment: SPR; haem-bound PGRMC1. This is another data set of the same source.
For experiment [3], the target named is T2, HO1 (Homo sapiens).
T2 chain: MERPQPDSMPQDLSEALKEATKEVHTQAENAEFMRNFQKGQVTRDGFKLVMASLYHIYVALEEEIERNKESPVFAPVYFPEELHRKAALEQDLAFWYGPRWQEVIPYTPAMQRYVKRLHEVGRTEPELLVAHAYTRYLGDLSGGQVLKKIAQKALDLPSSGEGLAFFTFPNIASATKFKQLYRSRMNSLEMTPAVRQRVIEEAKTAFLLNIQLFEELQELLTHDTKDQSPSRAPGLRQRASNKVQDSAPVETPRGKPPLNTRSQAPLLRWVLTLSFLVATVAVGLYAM
Nature of the experiment: SPR.

Experiment [4] has as its target T2, HO1. Nature of the experiment: SPR.
Experiment [5] addresses Gαi1 (Homo sapiens). Nature of the experiment: SPR.
Experiment [6] addresses Gαi1 (Homo sapiens). Nature of the experiment: SPR. This is another data set of the same source.

Sequence of Gαi1 (Homo sapiens) (chain, as listed by the source): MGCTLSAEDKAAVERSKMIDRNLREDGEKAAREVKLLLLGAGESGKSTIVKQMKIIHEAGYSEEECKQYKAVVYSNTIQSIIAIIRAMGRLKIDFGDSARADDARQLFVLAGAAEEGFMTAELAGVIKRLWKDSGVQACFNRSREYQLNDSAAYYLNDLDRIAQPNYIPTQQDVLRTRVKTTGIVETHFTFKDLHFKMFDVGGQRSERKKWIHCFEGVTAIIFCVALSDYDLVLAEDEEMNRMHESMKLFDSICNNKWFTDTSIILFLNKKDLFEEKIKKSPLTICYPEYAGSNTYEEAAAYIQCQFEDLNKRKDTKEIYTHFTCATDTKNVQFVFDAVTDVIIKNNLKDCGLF
T1 sequence (O00264 44-195): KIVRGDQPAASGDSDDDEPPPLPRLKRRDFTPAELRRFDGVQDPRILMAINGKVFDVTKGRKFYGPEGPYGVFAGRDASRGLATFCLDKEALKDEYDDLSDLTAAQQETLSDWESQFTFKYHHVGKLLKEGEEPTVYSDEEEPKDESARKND

B1: recombinant CYP51 (enzyme)
chain: MAAAAGMLLLGLLQAGGSVLGQAMEKVTGGNLLSMLLIACAFTLSLVYLIRLAAGHLVQLPAGVKSPPYIFSPIPFLGHAIAFGKSPIEFLENAYEKYGPVFSFTMVGKTFTYLLGSDAAALLFNSKNEDLNAEDVYSRLTTPVFGKGVAYDVPNPVFLEQKKMLKSGLNIAHFKQHVSIIEKETKEYFESWGESGEKNVFEALSELIILTASHCLHGKEIRSQLNEKVAQLYADLDGGFSHAAWLLPGWLPLPSFRRRDRAHREIKDIFYKAIQKRRQSQEKIDDILQTLLDATYKDGRPLTDDEVAGMLIGLLLAGQHTSSTTSAWMGFFLARDKTLQKKCYLEQKTVCGENLPPLTYDQLKDLNLLDRCIKETLRLRPPIMIMMRMARTPQTVAGYTIPPGHQVCVSPTVNQRLKDSWVERLDFNPDRYLQDNPASGEKFAYVPFGAGRHRCIGENFAYVQIKTIWSTMLRLYEFDLIDGYFPTVNYTTMIHTPENPVIRYKRRSK
The term Kd denotes a measure of binding affinity in units of concentration. The term koff denotes the first-order rate constant of dissociation. Consider B1, for which the Kd in experiment [1] was determined as 5900 nM. Moreover, in experiment [2], the koff is 0.0012 s⁻¹.

B2: CPR (protein)
chain: MGDSHVDTSSTVSEAVAEEVSLFSMTDMILFSLIVGLLTYWFLFRKKKEEVPEFTKIQTLTSSVRESSFVEKMKKTGRNIIVFYGSQTGTAEEFANRLSKDAHRYGMRGMSADPEEYDLADLSSLPEIDNALVVFCMATYGEGDPTDNAQDFYDWLQETDVDLSGVKFAVFGLGNKTYEHFNAMGKYVDKRLEQLGAQRIFELGLGDDDGNLEEDFITWREQFWPAVCEHFGVEATGEESSIRQYELVVHTDIDAAKVYMGEMGRLKSYENQKPPFDAKNPFLAAVTTNRKLNQGTERHLMHLELDISDSKIRYESGDHVAVYPANDSALVNQLGKILGADLDVVMSLNNLDEESNKKHPFPCPTSYRTALTYYLDITNPPRTNVLYELAQYASEPSEQELLRKMASSSGEGKELYLSWVVEARRHILAILQDCPSLRPPIDHLCELLPRLQARYYSIASSSKVHPNSVHICAVVVEYETKAGRINKGVATNWLRAKEPAGENGGRALVPMFVRKSQFRLPFKATTPVIMVGPGTGVAPFIGFIQERAWLRQQGKEVGETLLYYGCRRSDEDYLYREELAQFHRDGALTQLNVAFSREQSHKVYVQHLLKQDREHLWKLIEGGAHIYVCGDARNMARDVQNTFYDIVAELGAMEHAQAVDYIKKLMTKGRYSLDVWS
modifications: FAD and FMN cofactors; literature comparison value, construct not given, full length and human species assumed haem state not stated; literature comparison value, the cited study may have used a C-terminally truncated soluble form
B2 returned a Kd in the experiment with HO1 [3] of 2400 nM. The koff with HO1 [4] came out at 0.004 s⁻¹.

B3: Neuroglobin (protein)
chain: MERPEPELIRQSWRAVSRSPLEHGTVLFARLFALEPDLLPLFQYNCRQFSSPEDCLSSPEFLDHIRKVMLVIDAAVTNVEDLSSLEEYLASLGRKHRAVGVKLSSFSTVGESLLYMLEKCLGPAFTPATRAAWSQLYGAVVQAMSRGWDGE
modifications: haem b bound (oxidation state not stated); literature comparison value, construct not given; check residues are from general knowledge, not the paper nucleotide state not stated; literature comparison value, construct and species not given; check residues are from general knowledge, not the paper
Molecule B3 gave a Kd in the experiment with Gαi1 [5] of 600 nM. Also, the koff in the experiment with Gαi1 [6] stood at 0.0003 s⁻¹.
